Reference: the nanobody polyreactivity screen of Harvey et al. (2022)

test: yeast display, Sf9 membrane polyspecificity reagent, FACS + sequencing; frameworks hold sequencing errors
Method in brief: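 Galactose induction of a Saccharomyces cerevisiae BJ5465 synthetic nanobody display library ran 36–48 hours. The cells were then stained for 1 hour at 4 °C with 10% biotinylated, detergent-solubilized Sf9 membrane reagent, pulled down on streptavidin microbeads and FACS-sorted into low and high (top ~1%) gates on expression and reagent-binding fluorescence. Labels for polyreactivity follow the gate of origin.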

**Q.** With “QVQLVESGGGLVQAGGSLRLSCAASGRIFFYYAKGWSRQAPGKARELVAAINRGGRTYYADSVKGRFTISRDNAKNTVYLQMNSLKPEDTADYYCAADCHTAKSNFDYWGQGTQVTVSS” as the sequence, how does the “polyreactivity (PSR sort gate)” value read?
**A.** low polyreactivity

**Q.** With “QVQLVESGGGLVQAGGSLRLSCAASGRIFFYYAMGLYRQATGKERELVAAITDSVDSTYYADSVKGRFTISRDNAKNTVYFQMKSLKPEDTAVYYCATDVDWAYGYHYEYWGQGPQVTVSS” as the sequence, how does the “polyreactivity (PSR sort gate)” value read?
**A.** low polyreactivity

**Q.** For “QVQLVESGGGLVQAGGSLRLSCAASGRIFFYYAMGWYRQAPGKERELVAAISQSGGSSYYADSVKGRFTISRDNAKNTVYLQLTSLKPEDTAVYYCAADDRYYTYGYDYWGQGTQVTVSS”, which “polyreactivity (PSR sort gate)” value is on record?
**A.** low polyreactivity

**Q.** Which “polyreactivity (PSR sort gate)” value does the source give for “QVQLVESGGGLVQAGGSLRLSCAASGRIFGAYAMGWYRQAPGKERELVAAITSRGGNTYYADSVKGRFTISRDNAKNTVYFQMNSLKPEDTAVYYWAARHDKRRQYYVGQSAFDYWGQGTQVTVSS” here?
**A.** low polyreactivity

**Q.** With “QVQLVESGGGLVQAGGSLRLSCAASGRIFGAYAMGWYRQAPGKERELVASITGRGTSTYYADSVKGRFTISRDNAKNTVYLQMNSLKPEDSAVYYCAADKTVRSSNYDYWGQGTQVTVSS” as the sequence, how does the “polyreactivity (PSR sort gate)” value read?
**A.** low polyreactivity

**Q.** For “QVQLVESGGGLVQAGGSLRLSCAASGRIFGDNAMGWYRQAPGKEREFVAAISWSGGTTYYADSVKGRFTISRDNAKNTVYLQMNSLKPEDTAVYYCAADYTRGYDYWGQGTQVTVSS”, which “polyreactivity (PSR sort gate)” value is on record?
**A.** low polyreactivity

**Q.** For “QVQLVESGGGLVQAGGSLRLSCAASGRIFGDNAMGWYRQAPGKERELVAAITSGGNTYYADSVKGRFTISRDNAKNTVYLQMNSLKPEDTAVYYCNVADWRRWGYDYWGQGTQVTVSS”, which “polyreactivity (PSR sort gate)” value is on record?
**A.** low polyreactivity

**Q.** Which “polyreactivity (PSR sort gate)” value does the source give for “QVQLVESGGGLVQAGGSLRLSCAASGRIFGFYAMGCYRQAPGKERELVAVITYRDGRTYYADSVKGRFTISRDNEKNTVYLQMNSLKPEDTAVYYCARGYQGRLKYESWGQGTQVTVSS” here?
**A.** low polyreactivity

**Q.** Which “polyreactivity (PSR sort gate)” value does the source give for “QVQLVESGGGLVQAGGSLRLSCAASGRIFGFYAMGWYRPAPGKERELVARITLSGGRTYYADSVKGRFTISRDNAKNTVYLQMNSLKPEDTAVYYCAADSIGRLWGYGYWGQGTQVTVSS” here?
**A.** high polyreactivity

**Q.** Which “polyreactivity (PSR sort gate)” value does the source give for “QVQLVESGGGLVQAGGSLRLSCAASGRIFGFYAMGWYRQAPGKERELVARITLSGGRTYYADSVKGRFTISRDNAKNTVYLQMNSLKPEDTAVYYCAAVSYSKRTWSMNYWGQGTQVTVSS” here?
**A.** high polyreactivity

**Q.** For “QVQLVESGGGLVQAGGSLRLSCAASGRIFGFYTMGWYRQAPGKERELVAVINRGGRTYYADSVKGRFTISRDNAKNTVYLQMNSLKPEDTAVYYCAADYYTQGAYRGMDYWGQGTQVTVSS”, which “polyreactivity (PSR sort gate)” value is on record?
**A.** high polyreactivity

**Q.** For “QVQLVESGGGLVQAGGSLRLSCAASGRIFGGNAMGGYRQAPGKERELVAAITTGGSTNYADSVKGRFTISRDNAKNTVYLQMNSLKPEDTAVYYCNKRQSARLYGDTYDYWGQGTQVTVSS”, which “polyreactivity (PSR sort gate)” value is on record?
**A.** low polyreactivity

**Q.** With “QVQLVESGGGLVQAGGSLRLSCAASGRIFGGNAMGWFRQAPGKERELVAASTTRGGSTSADSVKGRFTISRDNAKNTVYLHMNSLKPEATAVYYCAVARSSHGGPRYLVRTYGYWGQATQVTVSS” as the sequence, how does the “polyreactivity (PSR sort gate)” value read?
**A.** low polyreactivity

**Q.** For “QVQLVESGGGLVQAGGSLRLSCAASGRIFGGNAMGWYRKAPGTEREVVAAISWIGGTTYYADSVKGRFTISRDNAKNTVYLQMISLKPEDTAVYYCAAYRYRPHDHRYYRYDYWGQGTQVTVSS”, which “polyreactivity (PSR sort gate)” value is on record?
**A.** high polyreactivity

**Q.** Which “polyreactivity (PSR sort gate)” value does the source give for “QVQLVESGGGLVQAGGSLRLSCAASGRIFGGNAMGWYRPAPGKERELVGGISRRGGSTYYADSVKGRFTISRDNAKNTVYLQMYSLKPEDTAVYYCNAYYRYSVFAEKYDYWGQGTQVTVSS” here?
**A.** high polyreactivity

**Q.** For “QVQLVESGGGLVQAGGSLRLSCAASGRIFGGNAMGWYRQAAGKERELVAGITGSGGSTYYADSVKGRFTISRDNAKNTVYLQMISLKPEDTAVYYCAAGYTYYYPSSGFDYWGQGTQVTVSS”, which “polyreactivity (PSR sort gate)” value is on record?
**A.** low polyreactivity

**Q.** Which “polyreactivity (PSR sort gate)” value does the source give for “QVQLVESGGGLVQAGGSLRLSCAASGRIFGGNAMGWYRQAPGKECELVAAISKGGGSTNYADSVKGRFTISRDNAKNTVYLQMNSLKPEDTAVYYCAAVVSAHADDVDYWGQGTQVTVSS” here?
**A.** high polyreactivity

**Q.** Which “polyreactivity (PSR sort gate)” value does the source give for “QVQLVESGGGLVQAGGSLRLSCAASGRIFGGYAMGWSRQAPGKERELVAAISNGGSTYYADSVKGRFTISRDNAKNTVYLQMNSLKPEDTAVYYCAARWNWTGYRYDHWGQGTQVTVSS” here?
**A.** low polyreactivity

**Q.** With “QVQLVESGGGLVQAGGSLRLSCAASGRIFGGYAMGWYRQAPGKEREFVAAITTSGGSTYYADSVKGRFTISRDNAKNTVYFQMNSLKPEDTAVYYCAARGYIPARFVSLVYRYYYWGQGTQVTVSS” as the sequence, how does the “polyreactivity (PSR sort gate)” value read?
**A.** high polyreactivity

**Q.** For “QVQLVESGGGLVQAGGSLRLSCAASGRIFGGYAMGWYRQAPGKERELVASITGGGTTDYADSVKGRFTISRDNAKNTVYLQMNSLKPEDTAVYYCAKRSHQFGVSRSYNTYYYWGQGTQVTVSS”, which “polyreactivity (PSR sort gate)” value is on record?
**A.** low polyreactivity

**Q.** Which “polyreactivity (PSR sort gate)” value does the source give for “QVQLVESGGGLVQAGGSLRLSCAASGRIFGGYTMGWYRQAHGKERELFAAITGSGGRTYYAYSVKGRFTISRDNAKNTVYLQMNSLKPEDTAVYYCNTVYRYRYYWGEGTQVTVSS” here?
**A.** high polyreactivity

**Q.** With “QVQLVESGGGLVQAGGSLRLSCAASGRIFGGYTMGWYRQAPGKEREFVAAITSSGGSTYYADSVKGRFTISRDNAKNTVYLQMNSLKPEDTAVYYCAVDDYYYDYDYWGQGTQVTVSS” as the sequence, how does the “polyreactivity (PSR sort gate)” value read?
**A.** low polyreactivity

**Q.** With “QVQLVESGGGLVQAGGSLRLSCAASGRIFGHYTMGWYRQAPGKERELVAAISWGGVRTYYADSVKGRFTISRDNAKNTVYLQMNSLKPEVTAVYYCAARWRRYVYPDGHLFWYDYWGQGTQVTVSS” as the sequence, how does the “polyreactivity (PSR sort gate)” value read?
**A.** high polyreactivity

**Q.** With “QVQLVESGGGLVQAGGSLRLSCAASGRIFGHYVMGWYRQAPGKERELVAAISYSGGSTYYADSVKGRFTISRDNAKITVYLQMISLKPEDTAVYYCAARETQDSPYGAYYYWGQGTQVTVSS” as the sequence, how does the “polyreactivity (PSR sort gate)” value read?
**A.** high polyreactivity

**Q.** With “QVQLVESGGGLVQAGGSLRLSCAASGRIFGINAMGWYRQAPGKERELVASIDGGGSKNYADSVKGRFTISRDNAKNTVYLQMNSLKPEDTAVYYCAKERSEYRSRHQAYRYDYWGQGTQVTVSS” as the sequence, how does the “polyreactivity (PSR sort gate)” value read?
**A.** low polyreactivity

**Q.** For “QVQLVESGGGLVQAGGSLRLSCAASGRIFGINSMGWYRQAPGKERELVAAITGGGSTYADSVKGRFTISRDNAKNTVYLQMNSLKPEDTAVYYCAAVSPRRYRYDYWGQGTQVTVSS”, which “polyreactivity (PSR sort gate)” value is on record?
**A.** low polyreactivity

**Q.** With “QVQLVESGGGLVQAGGSLRLSCAASGRIFGKYAMGWYRQAPGKERELVAANSRSCASTYYADSVKGRFTISRDNAKNTVYLQMNSLKPEDTAVYYCAAVPPYNYRFRVDYWGQGTQVTVSS” as the sequence, how does the “polyreactivity (PSR sort gate)” value read?
**A.** high polyreactivity

**Q.** With “QVQLVESGGGLVQAGGSLRLSCAASGRIFGKYAMGWYRQAPGKEWELVAAISSSGGSTYYADSVKGRFTISRDNAKNTVYLQMNSLKPEDTAVYYCNAPQYWRRSYREYDYWGQGTQVTVSS” as the sequence, how does the “polyreactivity (PSR sort gate)” value read?
**A.** high polyreactivity

**Q.** For “QVQLVESGGGLVQAGGSLRLSCAASGRIFGKYPMGWYRQAPAKERELVAAIRITGGSTYYADSVKGRFTISRDNAKNTVYLQMNSLKPEDTAVYYCAAVYKYADVIYDYWGQGTQVTVSS”, which “polyreactivity (PSR sort gate)” value is on record?
**A.** high polyreactivity

**Q.** For “QVQLVESGGGLVQAGGSLRLSCAASGRIFGKYVMGWYRQAPGKERELVAAIRSSGGSTYYADSVKGRFTISRDNAKNTVYLQLNSLKPEDTAVYYCAKRLHYSAPRYTENDYWGQGTQVTVSS”, which “polyreactivity (PSR sort gate)” value is on record?
**A.** high polyreactivity

**Q.** With “QVQLVESGGGLVQAGGSLRLSCAASGRIFGLYAMGWYRQAPGKERELVAAISVISTGPYYADSVKGRFTISRDNAMNTVYFQMNSLKPEDTAVYYCNADSVQYTPPESDYWGQGTQVTVSS” as the sequence, how does the “polyreactivity (PSR sort gate)” value read?
**A.** low polyreactivity

**Q.** Which “polyreactivity (PSR sort gate)” value does the source give for “QVQLVESGGGLVQAGGSLRLSCAASGRIFGLYAMGWYRQAPGKERELVAAITDSDGSTYYADSVKGRFTISRDNAKNTVYLQMNSLKPEDTAVYYCNKRLPLIRTSWAYDYWGQGTQVTVSS” here?
**A.** low polyreactivity

**Q.** With “QVQLVESGGGLVQAGGSLRLSCAASGRIFGLYAMGWYTQAPGKERELVAAYADSVKGRFTISRDNAKNTVYLQMNSRKPVDTAVYYCAKGPLYAGSTIDLRDFNYWGQGTQVTVSS” as the sequence, how does the “polyreactivity (PSR sort gate)” value read?
**A.** low polyreactivity

**Q.** With “QVQLVESGGGLVQAGGSLRLSCAASGRIFGLYLGWYRQAPGKERELVATITWRGGSTYYADSVKGRFTISRDNAKNTVYLHLNSVKPEDTEVYYCAARGYRGRMGYWGQGTQVTVSS” as the sequence, how does the “polyreactivity (PSR sort gate)” value read?
**A.** low polyreactivity

**Q.** With “QVQLVESGGGLVQAGGSLRLSCAASGRIFGNYAMGWYRQAPGKERELVAAISGGGSTYYADSVKGRFTISRDNAKNTVYLQMNSLKPEDTAVYYCAARFLWSVFGRKGGFWGQGTQVTVSS” as the sequence, how does the “polyreactivity (PSR sort gate)” value read?
**A.** low polyreactivity

**Q.** Which “polyreactivity (PSR sort gate)” value does the source give for “QVQLVESGGGLVQAGGSLRLSCAASGRIFGNYAMGWYRQAPGKERELVAAITSGARTYYADSVKGRFTISRDNAKNTVYLQMNSLKPEDTAVYYCAAYHKSYSYRYDYWGQGTQVTVSS” here?
**A.** high polyreactivity

**Q.** For “QVQLVESGGGLVQAGGSLRLSCAASGRIFGPYAMGWDRQAPGKERELVAAITWRGDRTYYADSVKGRFTISRDNPKNTVYLQMNSLKPEDTAVYYCAARGGRSEYDYWGQGTQVTVSS”, which “polyreactivity (PSR sort gate)” value is on record?
**A.** low polyreactivity

**Q.** Which “polyreactivity (PSR sort gate)” value does the source give for “QVQLVESGGGLVQAGGSLRLSCAASGRIFGPYAMGWYRQAPGKERELVAAITWSSGITYYADSVKGRFTISRDNAKNTVYLQMNSLKPEDTAVYYCAADSRLPYYRIMEYWGQGTQVTVSS” here?
**A.** low polyreactivity

**Q.** Which “polyreactivity (PSR sort gate)” value does the source give for “QVQLVESGGGLVQAGGSLRLSCAASGRIFGPYAMGWYRQAPGKEREWVAAISYSGGRTRYADSVKGRFTISRDNAKNTVYLQMNSLKPEDTAVYYCNRVIPTQSLRDYYWGQGTQVTVSS” here?
**A.** high polyreactivity

**Q.** For “QVQLVESGGGLVQAGGSLRLSCAASGRIFGPYTMAWYRQAPRKERELVAAISRRGGSTYYADSVKGRFTISRDNAKNTVYLQMTSLKPEDTAVYYCAAKIYFLAILYDYWGQGTQVTVSS”, which “polyreactivity (PSR sort gate)” value is on record?
**A.** high polyreactivity

**Q.** With “QVQLVESGGGLVQAGGSLRLSCAASGRIFGQNAMGWYRQSPGKERELVAVITSRGTRTYYADSVKGRFTISRDNAKNTVYLQMNSLNQEDTAVYYCAADVYSDNYKTWPYDYWGQGTQVTVSS” as the sequence, how does the “polyreactivity (PSR sort gate)” value read?
**A.** low polyreactivity
